B1: SLC6A17 (parent)
chain: HMFTPKLDKMLDPQVWREAATQVF

Variants of: B1
Assay: protein stability index of a GFP-peptide fusion (GPS, HEK-293T) (PSI 1-6); higher = more stable
Conditions: c terminus: a fixed tail appended
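Note: lentivirally expressed fusions sorted by FACS into six bins by GFP to DsRed ratio, PSI derived from sequencing read proportions per bin multiplied by bin number.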

| Variant | protein stability index |
| --- | --- |
| HMFTPKLDKMLDPQVWREIATQVF [A19I] | 1.91 |
| HMFTPKLDKMLDPQVWREKATQVF [A19K] | 1.79 |
| HMFTPKLDKMLDPQVWRELATQVF [A19L] | 1.48 |
| HMFTPKLDKMLDPQVWREMATQVF [A19M] | 1.5 |
| HMFTPKLDKMLDPQVWRENATQVF [A19N] | 2.35 |
| HMFTPKLDKMLDPQVWREPATQVF [A19P] | 2.24 |
| HMFTPKLDKMLDPQVWREQATQVF [A19Q] | 2.35 |
| HMFTPKLDKMLDPQVWRERATQVF [A19R] | 2.03 |
| HMFTPKLDKMLDPQVWRESATQVF [A19S] | 1.52 |
| HMFTPKLDKMLDPQVWRETATQVF [A19T] | 2.56 |
| HMFTPKLDKMLDPQVWREVATQVF [A19V] | 2.15 |
| HMFTPKLDKMLDPQVWREWATQVF [A19W] | 1.35 |
| HMFTPKLDKMLDPQVWREYATQVF [A19Y] | 2.12 |
| HMFTPKLDKMLDPQVWREACTQVF [A20C] | 1.82 |
| HMFTPKLDKMLDPQVWREADTQVF [A20D] | 2.24 |
| HMFTPKLDKMLDPQVWREAETQVF [A20E] | 2.41 |
| HMFTPKLDKMLDPQVWREAFTQVF [A20F] | 1.43 |
| HMFTPKLDKMLDPQVWREAGTQVF [A20G] | 1.82 |
| HMFTPKLDKMLDPQVWREAHTQVF [A20H] | 1.26 |
| HMFTPKLDKMLDPQVWREAITQVF [A20I] | 2.21 |
| HMFTPKLDKMLDPQVWREAKTQVF [A20K] | 2.38 |
| HMFTPKLDKMLDPQVWREALTQVF [A20L] | 2.6 |
| HMFTPKLDKMLDPQVWREANTQVF [A20N] | 1.94 |
| HMFTPKLDKMLDPQVWREAPTQVF [A20P] | 1.48 |

| Variant | protein stability index |
| --- | --- |
| HMFTPKLDKMLDPQVWREAQTQVF [A20Q] | 1.7 |
| HMFTPKLDKMLDPQVWREARTQVF [A20R] | 1.87 |
| HMFTPKLDKMLDPQVWREASTQVF [A20S] | 2.03 |
| HMFTPKLDKMLDPQVWREATTQVF [A20T] | 2.19 |
| HMFTPKLDKMLDPQVWREAVTQVF [A20V] | 1.22 |
| HMFTPKLDKMLDPQVWREAAAQVF [T21A] | 1.91 |
| HMFTPKLDKMLDPQVWREAACQVF [T21C] | 1.06 |
| HMFTPKLDKMLDPQVWREAADQVF [T21D] | 2.36 |
| HMFTPKLDKMLDPQVWREAAEQVF [T21E] | 2.42 |
| HMFTPKLDKMLDPQVWREAAFQVF [T21F] | 3.23 |
| HMFTPKLDKMLDPQVWREAAGQVF [T21G] | 2.13 |
| HMFTPKLDKMLDPQVWREAAHQVF [T21H] | 1.76 |
| HMFTPKLDKMLDPQVWREAAIQVF [T21I] | 1.48 |
| HMFTPKLDKMLDPQVWREAAKQVF [T21K] | 3.06 |
| HMFTPKLDKMLDPQVWREAALQVF [T21L] | 1.88 |
| HMFTPKLDKMLDPQVWREAAMQVF [T21M] | 1.54 |
| HMFTPKLDKMLDPQVWREAANQVF [T21N] | 2.21 |
| HMFTPKLDKMLDPQVWREAAPQVF [T21P] | 2.46 |
| HMFTPKLDKMLDPQVWREAAQQVF [T21Q] | 1.28 |
| HMFTPKLDKMLDPQVWREAARQVF [T21R] | 1.84 |
| HMFTPKLDKMLDPQVWREAASQVF [T21S] | 1.94 |
| HMFTPKLDKMLDPQVWREAAVQVF [T21V] | 1.71 |
| HMFTPKLDKMLDPQVWREAAWQVF [T21W] | 2.48 |
| HMFTPKLDKMLDPQVWREAAYQVF [T21Y] | 1.54 |

| Variant | protein stability index |
| --- | --- |
| HMFTPKLDKMLDPQVWREAATAVF [Q22A] | 1.36 |
| HMFTPKLDKMLDPQVWREAATCVF [Q22C] | 1.81 |
| HMFTPKLDKMLDPQVWREAATDVF [Q22D] | 2.43 |
| HMFTPKLDKMLDPQVWREAATEVF [Q22E] | 1.9 |
| HMFTPKLDKMLDPQVWREAATGVF [Q22G] | 1.93 |
| HMFTPKLDKMLDPQVWREAATHVF [Q22H] | 1.64 |
| HMFTPKLDKMLDPQVWREAATIVF [Q22I] | 1.45 |
| HMFTPKLDKMLDPQVWREAATKVF [Q22K] | 2.52 |
| HMFTPKLDKMLDPQVWREAATLVF [Q22L] | 1.68 |
| HMFTPKLDKMLDPQVWREAATMVF [Q22M] | 3.21 |
| HMFTPKLDKMLDPQVWREAATNVF [Q22N] | 2.5 |
| HMFTPKLDKMLDPQVWREAATPVF [Q22P] | 1.67 |
| HMFTPKLDKMLDPQVWREAATRVF [Q22R] | 1.77 |
| HMFTPKLDKMLDPQVWREAATSVF [Q22S] | 1.9 |
| HMFTPKLDKMLDPQVWREAATTVF [Q22T] | 1.82 |
| HMFTPKLDKMLDPQVWREAATWVF [Q22W] | 2.1 |
| HMFTPKLDKMLDPQVWREAATYVF [Q22Y] | 1.85 |
| HMFTPKLDKMLDPQVWREAATQAF [V23A] | 2.02 |
| HMFTPKLDKMLDPQVWREAATQCF [V23C] | 2.99 |
| HMFTPKLDKMLDPQVWREAATQDF [V23D] | 3.65 |
| HMFTPKLDKMLDPQVWREAATQEF [V23E] | 2.9 |
| HMFTPKLDKMLDPQVWREAATQFF [V23F] | 2.16 |
| HMFTPKLDKMLDPQVWREAATQGF [V23G] | 2.2 |
| HMFTPKLDKMLDPQVWREAATQHF [V23H] | 2.02 |

| Variant | protein stability index |
| --- | --- |
| HMFTPKLDKMLDPQVWREAATQIF [V23I] | 1.89 |
| HMFTPKLDKMLDPQVWREAATQKF [V23K] | 2.48 |
| HMFTPKLDKMLDPQVWREAATQLF [V23L] | 1.58 |
| HMFTPKLDKMLDPQVWREAATQMF [V23M] | 1.55 |
| HMFTPKLDKMLDPQVWREAATQNF [V23N] | 2.07 |
| HMFTPKLDKMLDPQVWREAATQPF [V23P] | 2.2 |
| HMFTPKLDKMLDPQVWREAATQQF [V23Q] | 1.74 |
| HMFTPKLDKMLDPQVWREAATQRF [V23R] | 3.06 |
| HMFTPKLDKMLDPQVWREAATQSF [V23S] | 2.05 |
| HMFTPKLDKMLDPQVWREAATQTF [V23T] | 2.02 |
| HMFTPKLDKMLDPQVWREAATQWF [V23W] | 1.75 |
| HMFTPKLDKMLDPQVWREAATQYF [V23Y] | 2.17 |
| HMFTPKLDKMLDPQVWREAATQVA [F24A] | 2.29 |
| HMFTPKLDKMLDPQVWREAATQVC [F24C] | 1.97 |
| HMFTPKLDKMLDPQVWREAATQVD [F24D] | 3.56 |
| HMFTPKLDKMLDPQVWREAATQVH [F24H] | 2.18 |
| HMFTPKLDKMLDPQVWREAATQVI [F24I] | 1.54 |
| HMFTPKLDKMLDPQVWREAATQVK [F24K] | 3.81 |
| HMFTPKLDKMLDPQVWREAATQVL [F24L] | 2.7 |
| HMFTPKLDKMLDPQVWREAATQVM [F24M] | 2.96 |
| HMFTPKLDKMLDPQVWREAATQVN [F24N] | 2.67 |
| HMFTPKLDKMLDPQVWREAATQVP [F24P] | 3.17 |
| HMFTPKLDKMLDPQVWREAATQVQ [F24Q] | 2.64 |

Source: the supplement of paper PMC10567573
